Source: publication PMC9352346

How the values were obtained:
GST-Smad4, Q13485 = target: T1, GST-Smad4, Q13485; assay: GST pull-down, immunoblot band quantification; conditions: chain shown with the change; HEK293T cell lysate; n=3; read off a plot
T1 chain: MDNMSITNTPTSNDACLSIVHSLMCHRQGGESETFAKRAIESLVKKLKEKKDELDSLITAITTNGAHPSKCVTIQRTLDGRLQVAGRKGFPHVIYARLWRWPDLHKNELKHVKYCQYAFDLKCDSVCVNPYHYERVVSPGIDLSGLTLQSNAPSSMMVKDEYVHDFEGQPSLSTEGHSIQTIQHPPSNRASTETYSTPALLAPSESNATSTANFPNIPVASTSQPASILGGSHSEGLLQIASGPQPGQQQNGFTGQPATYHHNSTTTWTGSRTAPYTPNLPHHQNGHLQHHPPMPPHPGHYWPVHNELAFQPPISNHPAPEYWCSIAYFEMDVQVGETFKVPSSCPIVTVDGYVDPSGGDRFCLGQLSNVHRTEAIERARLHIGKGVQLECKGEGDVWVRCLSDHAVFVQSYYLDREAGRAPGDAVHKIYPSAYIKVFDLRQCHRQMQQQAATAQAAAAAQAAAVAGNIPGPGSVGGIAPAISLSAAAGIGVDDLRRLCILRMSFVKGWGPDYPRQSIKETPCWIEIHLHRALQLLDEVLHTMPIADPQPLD

GST-Smad4-MH2, Q13485 = target: T2, GST-Smad4-MH2, Q13485; assay: GST pull-down, immunoblot band quantification; conditions: chain shown with the change; HEK293T cell lysate; n=3; read off a plot
T2 chain: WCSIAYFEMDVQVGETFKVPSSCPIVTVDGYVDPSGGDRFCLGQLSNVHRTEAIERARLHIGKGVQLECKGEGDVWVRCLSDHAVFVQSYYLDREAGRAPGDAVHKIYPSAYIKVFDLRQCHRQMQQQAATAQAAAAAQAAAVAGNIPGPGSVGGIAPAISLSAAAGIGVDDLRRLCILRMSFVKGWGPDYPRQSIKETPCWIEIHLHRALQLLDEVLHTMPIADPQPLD

other: relative amount of Arl15-AL-GFP pulled down (GST-Smad4, Q13485): 1 | other: relative amount of Arl15-AL-GFP pulled down (GST-Smad4-MH2, Q13485): 0.55
B1: Arl15-WT-GFP A86L (protein)
chain: MSDLRITEAFLYMDYLCFRALCCKGPPPARPEYDLVCIGLTGSGKTSLLSKLCSESPDNVVSTTGFSIKAVPFQNAILNVKELGGLDNIRKYWSRYYQGSQGVIFVLDSASSEDDLEAARNELHSALQHPQLCTLPFLILANHQDKPAARSVQEIKKYFELEPLARGKRWILQPCSLDDMDALKDSFSQLINLLEEKDHEAVRM
